Measurements as given in the nanobody polyreactivity screen of Harvey et al. (2022).

Test: yeast display, Sf9 membrane polyspecificity reagent, FACS + sequencing; frameworks hold sequencing errors
Method in brief: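 Genes from sorted yeast were amplified by colony PCR, read by MiSeq 2 × 250 sequencing and filtered on CDR length. These cells carried a synthetic nanobody library in Saccharomyces cerevisiae BJ5465 and were sorted by FACS into low and high (top ~1%) gates on anti-HA and streptavidin fluorescence. Polyreactivity is labelled according to the gate of origin.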

Row | Sequence | polyreactivity (PSR sort gate)
1 | QVQLVESGGGLVQAGGSLRLSCAASGGTFKRNAMGWYRQAPGKERELVAAISTSGATTYYADSVKGRFTISRDNAKNTVYLQMNSLKPEDTAVYYCNAVGDARYNYWGQGTQVTVSS | high polyreactivity
2 | QVQLVESGGGLVQAGGSLRLSCAASGGTFKSAYVMGWYRQAPGKERELVAAIDSTGSTNYADSVKGRFTISRDNAKNTVYLQMNSLKPEDTAVYYCNADRRELYYDPMDYWGQGTQVTVSS | low polyreactivity
3 | QVQLVESGGGLVQAGGSLRLSCAASGGTFLINAMGWYRQAPGKERELVATITSGGTTYYADSVKGRFTISRDNAKNTVYLQMNSLKPEDTAVYYCATRGKGRYGYDSWGQGTQVTVSS | low polyreactivity
4 | QVQLVESGGGLVQAGGSLRLSCAASGGTFPAYTMGWYRQAPGKERELVAAITWSGGNTYYADSVKGRFTISRDNAKNTVYLQMNSLKPQDTAVYYCAAEYWQYQWSVRIDYEYWGQGTQVTVSS | high polyreactivity
5 | QVQLVESGGGLVQAGGSLRLSCAASGGTFPQNVMGWYRPAPGKERELVAAISSGGSTYYADSVKVRFTISRDNAKNTVYFQMNSLIPEDTGVYYCAKRRWYRYDYWGQGTQVTVSS | high polyreactivity
6 | QVQLVESGGGLVQAGGSLRLSCAASGGTFPVYALGWYRQAPGKERELVAAISYSGVTTYYADSVKGRFTISRDNAKNTVYLQMNSLKPEDTAVYYCNADWRRWYIFSYDYWGQGTQVTVSS | low polyreactivity
7 | QVQLVESGGGLVQAGGSLRLSCAASGGTFPWYTMGWYRQAPGKERELVAAISVSGDSTHYADSVKGRFTISRDNAKNTVYLQMNSLKPEDTAVYYCAATYLVSSDKYDYWGQGTQVTVSS | high polyreactivity
8 | QVQLVESGGGLVQAGGSLRLSCAASGGTFPYNAMGWYRQAAGKERELVAAISSSGTSTYYADSVKRRFTISRDNAKNTVYLQMNSLKPEDTAVYYCNDYFKRYDYWGQGTQVTVSS | high polyreactivity
9 | QVQLVESGGGLVQAGGSLRLSCAASGGTFPYNAMGWYRQAPGKERELVAAISSSGTSTYYADSVKGRFTISRDNAKNTVYLQMNSLKPEDTAVYYCNDYFKRYDYWGQGTQVTVSS | high polyreactivity
10 | QVQLVESGGGLVQAGGSLRLSCAASGGTFPYYAMGWYRQAPGKERELVAAISSSGGRTYYADSVKGRFTISRDNAKNTVYLQMNSLKPEDTAVYYCAKDTYGFAANRPAGDGYWGQGTQVTVSS | high polyreactivity
11 | QVQLVESGGGLVQAGGSLRLSCAASGGTFPYYAMGWYRQAPGKERELVADISGTDGSTYYADSVKGRFTISRDNAKTTVYLQMNSLKPEDTAVYYCNADPHWWYWDYDYWGQGTQVTVSS | high polyreactivity
12 | QVQLVESGGGLVQAGGSLRLSCAASGGTFQGNAMGWYRQAPGKEREFVATITRGGGSTYYADSVKGRFTISRDNAKNTVYLQMNSLKPEDTAVYYCNAKPSYYQRYNYWGQGTQVTVSS | high polyreactivity
13 | QVQLVESGGGLVQAGGSLRLSCAASGGTFQQNAMGWSRQAPGKERELVAAISWSDGSTYYADSVKGRFTISRDYATNTVYLQMNSLTPEDTAVYYCAADFTYYDSPYRDYNYESWGQGTQVTVSS | low polyreactivity
14 | QVQLVESGGGLVQAGGSLRLSCAASGGTFQSNGMGWYIQAPGKERELVATITGSGGDTSYAGSVKGRFTISRDNAKNTVYLQMNSLKPEDTAVYYCAAADADRKYDYWGQGTQVTVSS | low polyreactivity
15 | QVQLVESGGGLVQAGGSLRLSCAASGGTFRLYAMGWYRQAPGKERELVAAISGRGGSTYYADSVKGRFTISRDNAKNTVYLQMNSLKPEDTAVYYCARYRRGKMDYWGQGTQVTVSS | high polyreactivity
16 | QVQLVESGGGLVQAGGSLRLSCAASGGTFRLYTMGWYRQAPGKERELVAGISSSSGSTYYADSVKGRFTISRDNAKNTVYLQMNILKPEDTAVYYCAAYWPRSRYDYWGQGTQVTVSS | high polyreactivity
17 | QVQLVESGGGLVQAGGSLRLSCAASGGTFRNYAMGWYRQAPGKERELVAAITTGTITNYADSVKGRFTISRDNAKNTVYLQMNSLKPEDTAVYYCNAGAFYSDPYDYWGQGTQLTVSS | low polyreactivity
18 | QVQLVESGGGLVQAGGSLRLSCAASGGTFRNYPMGWYRQAPGKERELVAAITTGTITNYADSVKGRFTISRDNAKNTVYLQMNSLKPEDTAVYYCNAGAFYSDPYDYWGQGTQVTVSS | low polyreactivity
19 | QVQLVESGGGLVQAGGSLRLSCAASGGTFRPYAIGWYRQAPGKERELVATIRSSGGRTYYADSVKGRFTISRDNAKNTVYLQMNSLKPEDTAVYYCAKRAQTYYGYVYWGQGTQVTVSS | high polyreactivity
20 | QVQLVESGGGLVQAGGSLRLSCAASGGTFRRYTMGWYTQAPGKVRELVAAITTSGGSTYYADSVKGRFTISRDNAKNTVYLQMNSLKPEDTAVYYCAATRRYSGDYWGQGTQVTVSS | high polyreactivity
21 | QVQLVESGGGLVQAGGSLRLSCAASGGTFRVYAMGWYRQAPVKERELVDAITWRGGRTYYADSVKGRFTISRDNAKNTDYFQMNSLKPEDPAVYYCAADRYGDLYDYWGQGTQVTVSS | high polyreactivity
22 | QVQLVESGGGLVQAGGSLRLSCAASGGTFSFYTMGWYRQGPGKERELVAAIDSTGRTNYADSVKGRFTISRENAKNTVYLLMNSLKPDDTAVYYCSAGPPRADYDYWGQGTQVTVSS | low polyreactivity

Row | Sequence | polyreactivity (PSR sort gate)
23 | QVQLVESGGGLVQAGGSLRLSCAASGGTFSYYAMGWYRQAPGKERELVAAISGNGDTTYYADSVKGRFTSSRDNAKNTVYLQMNSLKPEATAVYYCNVFVSAGEEDEYWGQGTQVTVSS | low polyreactivity
24 | QVQLVESGGGLVQAGGSLRLSCAASGGTFTAYAMGWYIQAPGKERELVAAISASGDSTYYADSVKGRFTISRDIAKNTVYLQMNSLKPEDTAVYYCNADWYRTGRRGSDYWGQGTQVTVSS | low polyreactivity
25 | QVQLVESGGGLVQAGGSLRLSCAASGGTFTRYTMGWYRQAHGKESELVAAISSSGGSTYYADSVKGRFTISRDNAKNTVYLQMNSLKPEDTAVYYCAAFKASSKQYPYDYWGQGTQVTVSS | high polyreactivity
26 | QVQLVESGGGLVQAGGSLRLSCAASGGTFTSYAMGWYRQAPGKERELVAAISWSGGSTYYADSVKGRFTISRDNAKNTVYLQMKSLKPEDTAVYYCAAVFYRYNAVRYDYWGQGTQVTVSS | high polyreactivity
27 | QVQLVESGGGLVQAGGSLRLSCAASGGTFTVNAMGLYRQAPGKERELVAAITWDGGTTYYADSVKGRFTISRDNAKNTVYLQMNSLKPEDSAVYYCAAEVDYSAFDYWGQGTQVTVSS | low polyreactivity
28 | QVQLVESGGGLVQAGGSLRLSCAASGGTFVFYAMGWYIQAPGKERELVAAISSAGRTYYADAVKGRFTISRDNAKTTVYLQMNSLKPEETAVYYCAAVSSQYDGRYYYWGQGTQVTVSS | high polyreactivity
29 | QVQLVESGGGLVQAGGSLRLSCAASGGTFVPNAMGWYRQAPGKERELVAAITWSGARTYYADSVKGRFTISRDNAKNTVYLQMNSLKPEDTAVYYCAAVYNYYIVYEYYYWGQGTQVTVSS | high polyreactivity
30 | QVQLVESGGGLVQAGGSLRLSCAASGGTFWIYAMGWYRKAPGKERELVAGITTSGATTYYADSVKGRFTISRDNAKNTVYLQMNSLKPEDTAVYYCAADEYYRYEYWGQGTQVTVSS | low polyreactivity
31 | QVQLVESGGGLVQAGGSLRLSCAASGGTFWYNAMGWYRQAPGKERELVANIRRSGDSTYYADSVKARFTISRDNAKNTVYLQMNSLKPEDTAVYYCAVSYTTYYHRYYYWGQGTQVTVSS | high polyreactivity
32 | QVQLVESGGGLVQAGGSLRLSCAASGGTFYGNAMGWYRQAPGKERELVAGITDDSSTYYADSVKGRFTISRDNAKNTVYLQMNSLKPEDTAVYYCAKDLSWYYLPEVYYWGQGTQVTVSS | low polyreactivity
33 | QVQLVESGGGLVQAGGSLRLSCAASGGTFYGYAAMGWYRQAPGKERELVAAISRSGGRTYYADSVKGRFTISRDNAKNTVYLQMNSLKPEDTAVYYCAARRAYSRPPRDYWGQCTQVTVSS | high polyreactivity
34 | QVQLVESGGGLVQAGGSLRLSCAASGGTFYRYAMGWYRQAPGKERELVAAITSGSSTYYADSVKGRFTISRDNAKNTVYLQMNSLKPEDTAVYYCAAARYSRLSRTRPGKYGYWGQGTQVTVSS | low polyreactivity
35 | QVQLVESGGGLVQAGGSLRLSCAASGGTFYVNAMGLYRQAPGKERELVAGIRESGASTYYADSVKGRFTISRDNAKNTVYFQMNSLQPEDTAVYYCAVDGPYPAASQSEVGYDYWGQGTQVTVSS | low polyreactivity
36 | QVQLVESGGGLVQAGGSLRLSCAASGGTFYYYAMGWSRQAPGKERELVAAISWSGVSTSYADSVKGRFTISRDNANNTVYLQMNSLKPEDTAVYYCAAGPFYYTGYEGVYWGQGTQVTVSS | high polyreactivity
37 | QVQLVESGGGLVQAGGSLRLSCAASGGTFYYYAMGWYRQAPGKEREFVAAITWTGGRTYYADSVKGRFTISRDNAKNTVYLQMNSLKPEDTAVYYCAASDRYGGRDYWGQGTQVTVSS | high polyreactivity
38 | QVQLVESGGGLVQAGGSLRLSCAASGGTIDRYAMGWYRQAPGKERELVAAITKSGDRTYYADSVKGRFTISRDNAKNTVYLQMNSLKPEDTAVYYCAAAYSGLRRQNGFNYWGQGTQVTVSS | high polyreactivity
39 | QVQLVESGGGLVQAGGSLRLSCAASGGTIGYNAMGWYRQAPGKERELVAAISWSGGTTYYADSVKGRFTISRDNAKNTVYLQMNSLKPEDTAVYYCNVYSRGRDDWGQGTQVTVSS | high polyreactivity
40 | QVQLVESGGGLVQAGGSLRLSCAASGGTIVPNAMGWYRQAPGTERELVATLTSSDTTNYADSVKGRFTISRDNAKNTVYLQMNSLKPEDTAVYYSAASFKLGYWDYYYWGQGTQVTVSS | low polyreactivity
41 | QVQLVESGGGLVQAGGSLRLSCAASGGTIYGYAAMGWYRQAPGKERELVAAISRSGGRTYYADSVKGRFTISRDNAKNTVYLQMNSRKPEDTAVYYCAARRAYSRPPRDYWGQCTQVTVSS | high polyreactivity
42 | QVQLVESGGGLVQAGGSLRLSCAASGGTLDYNAMGWYRQAPGKERELVAGITSGGGTYYADSVKGRFTISRDNAKNTVYLQMNSVKPEDTAVYYCAARPWRSRYYGGLGRRFDYWGQGTQVTVSS | high polyreactivity
43 | QVQLVESGGGLVQAGGSLRLSCAASGGTLQGNAMGWYRQAPGKERELVAAISSRGGRTYYADSVKGRFTISRDNAKNTVYLQMNSLKPEDTAVYYCAAVQNGDSTLLRTKGGYWGQGTQVTVSS | high polyreactivity
